B1: BBSome complex member BBS5 (Homo sapiens), Q8N3I7 (parent)
chain: MSVLDALWEDRDVRFDLSAQQMKTRPGEVLIDCLDSIEDTKGNNGDRGRLLVTNLRILWHSLALSRVNVSVGYNCILNITTRTANSKLRGQTEALYILTKCNSTRFEFIFTNLVPGSPRLFTSVMAVHRAYETSKMYRDFKLRSALIQNKQLRLLPQEHVYDKINGVWNLSSDQGNLGTFFITNVRIVWHANMNDSFNVSIPYLQIRSIKIRDSKFGLALVIESSQQSGGYVLGFKIDPVEKLQESVKEINSLHKVYSASPIFGVDYEMEEKPQPLEALTVEQIQDDVEIDSDGHTDAFVAYFADGNKQQDREPVFSEELGLAIEKLKDGFTLQGLWEVMS
partner: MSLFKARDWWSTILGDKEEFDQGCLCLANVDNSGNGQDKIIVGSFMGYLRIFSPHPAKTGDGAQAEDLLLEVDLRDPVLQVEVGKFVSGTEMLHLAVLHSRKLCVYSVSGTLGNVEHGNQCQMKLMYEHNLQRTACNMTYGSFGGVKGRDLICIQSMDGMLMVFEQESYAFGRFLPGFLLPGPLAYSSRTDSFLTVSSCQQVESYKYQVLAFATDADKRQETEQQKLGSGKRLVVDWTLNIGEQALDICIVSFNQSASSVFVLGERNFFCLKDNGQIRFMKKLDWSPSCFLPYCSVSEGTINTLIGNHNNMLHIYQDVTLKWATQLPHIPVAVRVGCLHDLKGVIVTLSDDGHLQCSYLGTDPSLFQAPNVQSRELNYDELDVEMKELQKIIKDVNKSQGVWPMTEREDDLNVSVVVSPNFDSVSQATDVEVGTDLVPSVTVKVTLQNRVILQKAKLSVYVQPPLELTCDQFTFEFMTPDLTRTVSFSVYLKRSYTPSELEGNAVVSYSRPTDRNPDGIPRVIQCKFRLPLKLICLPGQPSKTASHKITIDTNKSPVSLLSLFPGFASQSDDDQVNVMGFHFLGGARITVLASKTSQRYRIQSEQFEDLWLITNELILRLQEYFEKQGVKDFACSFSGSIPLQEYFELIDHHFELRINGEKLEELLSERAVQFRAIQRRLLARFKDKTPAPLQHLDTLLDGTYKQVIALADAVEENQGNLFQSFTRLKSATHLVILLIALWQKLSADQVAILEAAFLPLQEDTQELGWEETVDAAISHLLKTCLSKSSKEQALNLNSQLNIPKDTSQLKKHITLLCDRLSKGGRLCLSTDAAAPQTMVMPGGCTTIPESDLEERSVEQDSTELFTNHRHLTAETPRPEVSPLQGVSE

Variants of: B1
Settings: with pthb1_human BBS9, Q3SYG4

Which “effect of a mutation on the interaction” value does the source give for MSVLDALWEDRDVRFDLSAQQMKTRPGEVLIDCLDSIEDTKGNNGDRGRLLVTNLRILWHSLALSRVNVSVGYNCILNITTRTANSKLRGQTEALYILTKCNSTRFEFIFTNLVPGSPRLFTSVMAVHRAYETSKMYRDFKLRSALIQNKQLRLLPQEHVYDKINGVWNLSSDQGNLGTFFITNVRIVWHANMNDSFNVSIPYLQIRSIKIRDSKFGLALVIESSQQSGGYVLGFKIDPVEKLQESVKEINSLHKVYSKSPIFGVDYEMEEKPQPLEALTVEQIQDDVEIDSDGHTDAFVAYFADGNKQQDREPVFSEELGLAIEKLKDGFTLQGLWEVMS [A259K] here?
The value was “with no effect”.

With MSVLDALWEDRDVRFDLSAQQMKTRPGEVLIDCLDSIEDTKGNNGDRGRLLVTNLRILWHSLALSRVNVSVGYNCILNITTRTANSKLRGQTEALYILTKCNSTRFEFIFTNLVPGSPRLFTSVMAVHRAYETSKMYRDFKLRSALIQNKQLRLLPQEHVYDKINGVWNLSSDQGNLGTFFITNVRIVWHANMNDSFNVSIPYLQIRSIKIRDSKFGLALVIESSQQSGGYVLGFKIDPVEKLQESVKEINSLHKVYSESPIFGVDYEMEEKPQPLEALTVEQIQDDVEIDSDGHTDAFVAYFADGNKQQDREPVFSEELGLAIEKLKDGFTLQGLWEVMS [A259E] as the variant, how does the “effect of a mutation on the interaction” value read?
Its value is “with no effect”.

Which “effect of a mutation on the interaction” value does the source give for MSVLDALWEDRDVRFDLSAQQMKTRPGEVLIDCLDSIEDTKGNNGDRGRLLVTNLRILWHSLALSRVNVSVGYNCILNITTRTANSKLRGQTEALYILTKCNSTRFEFIFTNLVPGSPRLFTSVMAVHRAYETSKMYRDFKLRSALIQNKQLRLLPQEHVYDKINGVWNLSSDQGNLGTFFITNVRIVWHANMNDSFNVSIPYLQIRSIKIRDSKFGLALVIESSQQSGGYVLGFKIDPVEKLQESVKEINSLHKVKSASPIFGVDYEMEEKPQPLEALTVEQIQDDVEIDSDGHTDAFVAYFADGNKQQDREPVFSEELGLAIEKLKDGFTLQGLWEVMS [Y257K] here?
The value was “disrupting interaction strength”.

How did the “effect of a mutation on the interaction” value turn out when MSVLDALWEDRDVRFDLSAQQMKTRPGEVLIDCLDSIEDTKGNNGDRGRLLVTNLRILWHSLALSRVNVSVGYNCILNITTRTANSKLRGQTEALYILTKCNSTRFEFIFTNLVPGSPRLFTSVMAVHRAYETSKMYRDFKLRSALIQNKQLRLLPQEHVYDKINGVWNLSSDQGNLGTFFITNVRIVWHANMNDSFNVSIPYLQIRSIKIRDSKFGLALVIESSQQSGGYVLGFKIDPVEKLQESVKEINSLHKVESASPIFGVDYEMEEKPQPLEALTVEQIQDDVEIDSDGHTDAFVAYFADGNKQQDREPVFSEELGLAIEKLKDGFTLQGLWEVMS [Y257E] was run?
The value was “with no effect”.

How did the “effect of a mutation on the interaction” value turn out when MSVLDALWEDRDVRFDLSAQQMKTRPGEVLIDCLDSIEDTKGNNGDRGRLLVTNLRILWHSLALSRVNVSVGYNCILNITTRTANSKLRGQTEALYILTKCNSTRFEFIFTNLVPGSPRLFTSVMAVHRAYETSKMYRDFKLRSALIQNKQLRLLPQEHVYDKINGVWNLSSDQGNLGTFFITNVRIVWHANMNDSFNVSIPYLQIRSIKIRDSKFGLALVIESSQQSGGYVLGFKIDPVEKLQESVKEINSLHKVYSASKIFGVDYEMEEKPQPLEALTVEQIQDDVEIDSDGHTDAFVAYFADGNKQQDREPVFSEELGLAIEKLKDGFTLQGLWEVMS [P261K] was run?
Its value is “with no effect”.

For MSVLDALWEDRDVRFDLSAQQMKTRPGEVLIDCLDSIEDTKGNNGDRGRLLVTNLRILWHSLALSRVNVSVGYNCILNITTRTANSKLRGQTEALYILTKCNSTRFEFIFTNLVPGSPRLFTSVMAVHRAYETSKMYRDFKLRSALIQNKQLRLLPQEHVYDKINGVWNLSSDQGNLGTFFITNVRIVWHANMNDSFNVSIPYLQIRSIKIRDSKFGLALVIESSQQSGGYVLGFKIDPVEKLQESVKEINSLHKVYSASAIFGVDYEMEEKPQPLEALTVEQIQDDVEIDSDGHTDAFVAYFADGNKQQDREPVFSEELGLAIEKLKDGFTLQGLWEVMS [P261A], which “effect of a mutation on the interaction” value is on record?
The value was “with no effect”.

How did the “effect of a mutation on the interaction” value turn out when MSVLDALWEDRDVRFDLSAQQMKTRPGEVLIDCLDSIEDTKGNNGDRGRLLVTNLRILWHSLALSRVNVSVGYNCILNITTRTANSKLRGQTEALYILTKCNSTRFEFIFTNLVPGSPRLFTSVMAVHRAYETSKMYRDFKLRSALIQNKQLRLLPQEHVYDKINGVWNLSSDQGNLGTFFITNVRIVWHANMNDSFNVSIPYLQIRSIKIRDSKFGLALVIESSQQSGGYVLGFKIDPVEKLQESVKEINSLHKVYSASEIFGVDYEMEEKPQPLEALTVEQIQDDVEIDSDGHTDAFVAYFADGNKQQDREPVFSEELGLAIEKLKDGFTLQGLWEVMS [P261E] was run?
The value was “with no effect”.

Which “effect of a mutation on the interaction” value does the source give for MSVLDALWEDRDVRFDLSAQQMKTRPGEVLIDCLDSIEDTKGNNGDRGRLLVTNLRILWHSLALSRVNVSVGYNCILNITTRTANSKLRGQTEALYILTKCNSTRFEFIFTNLVPGSPRLFTSVMAVHRAYETSKMYRDFKLRSALIQNKQLRLLPQEHVYDKINGVWNLSSDQGNLGTFFITNVRIVWHANMNDSFNVSIPYLQIRSIKIRDSKFGLALVIESSQQSGGYVLGFKIDPVEKLQESVKEINSLHKVYSAEPIFGVDYEMEEKPQPLEALTVEQIQDDVEIDSDGHTDAFVAYFADGNKQQDREPVFSEELGLAIEKLKDGFTLQGLWEVMS [S260E] here?
Its value is “with no effect”.

— IntAct's records for PubMed 29039417
